Columns and labels:
p53_WT [1] = target: T1, p53_WT (human, UniProt P04637 1-393); assay: EMSA
p53_WT [2] = target: T1, p53_WT; assay: AUC
p53_WT [3] = target: T1, p53_WT; assay: AUC; remark: listed apart in the source

T1 sequence (P04637 whole entry): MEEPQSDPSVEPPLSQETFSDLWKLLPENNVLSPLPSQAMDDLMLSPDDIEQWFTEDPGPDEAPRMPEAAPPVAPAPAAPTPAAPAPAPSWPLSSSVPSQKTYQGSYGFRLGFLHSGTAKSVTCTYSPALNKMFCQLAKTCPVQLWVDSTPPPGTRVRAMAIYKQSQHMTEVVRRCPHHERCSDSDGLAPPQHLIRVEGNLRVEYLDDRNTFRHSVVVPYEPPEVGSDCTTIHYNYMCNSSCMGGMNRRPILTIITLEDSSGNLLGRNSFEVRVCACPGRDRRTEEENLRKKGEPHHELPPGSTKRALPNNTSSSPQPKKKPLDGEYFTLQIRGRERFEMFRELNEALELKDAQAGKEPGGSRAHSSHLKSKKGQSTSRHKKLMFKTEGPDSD

Row | Binder | binding result (p53_WT [1]) | further results
1 | DNAp21 (EMSA) (dsDNA) DNA 1: GAACATGTCCCAACATGTTGGGCGTCGGCTGTCGGAGGAACATGTCCCAACATGTTG DNA 2: CAACATGTTGGGACATGTTCCTCCGACAGCCGACGCCCAACATGTTGGGACATGTTC | binds | –
2 | DNAp21 (AUC) (dsDNA) DNA 1: CTCAACATGTTGGGACATGTTCCT DNA 2: AGGAACATGTCCCAACATGTTGAG | – | binding result (p53_WT [2]): binds
3 | DNAmdm2 (EMSA) (dsDNA) DNA 1: GGTCAAGTTGGGACACGTCCGGCGTCGGCTGTCGGAGGAGCTAAGTCCTGACATGTCT DNA 2: AGACATGTCAGGACTTAGCTCCTCCGACAGCCGACGCCGGACGTGTCCCAACTTGACC | binds | –
4 | DNAmdm2 (AUC) (dsDNA) DNA 1: GGTCAAGTTGGGACACGTCCGGCGTCGGCTGTCGGAGGAGCTAAGTCCTGACATGTCT DNA 2: AGACATGTCAGGACTTAGCTCCTCCGACAGCCGACGCCGGACGTGTCCCAACTTGACC | – | binding result (p53_WT [3]): binds

Source: paper PMC12557481
